Measured values from the supplement of paper PMC9732359.
± gives the uncertainty stated by the source.

Test: protein stability index of a GFP-peptide fusion (yeast GPS) (PSI 1-4); higher = more stable; sorted into four equal gates, so the index is relative within each strain
Summary of the method: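 The protein stability index of a peptide was calculated by multiplying its read frequency in each gate by that gate's number and adding the products. The peptides were tiled 17-residue stretches of yeast proteins, fused downstream of GFP on a Cherry-expressing plasmid and carried in yeast as a pooled library. Mid-log cultures in leucine-free medium were sorted into four equal gates by GFP/Cherry ratio, and each gate's plasmids were PCR-amplified and Illumina-sequenced.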

LALGCHFQDQKNKKIEV [POP7] showed a protein stability index (doa10∆) of 2.65 ± 0.18, a protein stability index (pdr5∆) of 2.97 ± 0.16 and a protein stability index (san1∆) of 2.92 ± 0.12. It also gave a protein stability index (ubr1∆) of 2.29 ± 0.11.
Sequence VSLVAEATSNTNSEDKL [MED4] has a protein stability index (doa10∆) of 2.84 ± 0.12, a protein stability index (pdr5∆) of 3.03 ± 0.078 and a protein stability index (san1∆) of 2.84 ± 0.082. The protein stability index (ubr1∆) was 2.65 ± 0.1.
For IEKARVEAQSHRLTLED [PRE6], the protein stability index (ubr1∆) was 3.26 ± 0.15.
Work on LLLKLASPHASVRTAVF [ECM29] yielded a protein stability index (doa10∆) of 1.88 ± 0.048, a protein stability index (pdr5∆) of 1.87 ± 0.043 and a protein stability index (san1∆) of 1.57 ± 0.063. It also gave a protein stability index (ubr1∆) of 1.49 ± 0.029.
Sequence LELNLSVLHSWVQLVQI [YJL039C/NUP192] has a protein stability index (doa10∆) of 1.28 ± 0.074, a protein stability index (pdr5∆) of 1.91 ± 0.085 and a protein stability index (san1∆) of 2.11 ± 0.12. It also gave a protein stability index (ubr1∆) of 1.93 ± 0.09.
With DDRYGYQLYTSNPSGNY [PRE9] the protein stability index (doa10∆) was 2.88 ± 0.073, the protein stability index (pdr5∆) was 2.97 ± 0.081 and the protein stability index (san1∆) was 3.06 ± 0.065. For the same sequence, the protein stability index (ubr1∆) was 3.1 ± 0.05.
Work on SDTLKEFKIEQNNEQNP [YDL116W/NUP84] yielded a protein stability index (doa10∆) of 2.79 ± 0.23, a protein stability index (pdr5∆) of 3.01 ± 0.15 and a protein stability index (san1∆) of 2.8 ± 0.1. For the same sequence, the protein stability index (ubr1∆) was 3.3 ± 0.22.
In the case of SDPESERPAIEFETPTF [RPN14], the protein stability index (doa10∆) is reported as 3.13 ± 0.054, the protein stability index (pdr5∆) is reported as 3.11 ± 0.055 and the protein stability index (san1∆) is reported as 3.02 ± 0.047. For the same sequence, the protein stability index (ubr1∆) was 3.15 ± 0.053.
SPLDIYSDEASAQKKRF [RPS2] gave a protein stability index (doa10∆) of 2.74 ± 0.092, a protein stability index (pdr5∆) of 2.86 ± 0.082 and a protein stability index (san1∆) of 3.03 ± 0.07. The protein stability index (ubr1∆) was 3.03 ± 0.061.
With LSPSGHKTFLVANVKDL [RPL32] the protein stability index (pdr5∆) was 3.33 ± 0.26, the protein stability index (san1∆) was 2.84 ± 0.095 and the protein stability index (ubr1∆) was 2.84 ± 0.17.
Sequence LGCTLVTLLANVRALYM [RMP1] has a protein stability index (doa10∆) of 1.62 ± 0.17, a protein stability index (pdr5∆) of 1.85 ± 0.21 and a protein stability index (san1∆) of 2.74 ± 0.16. It also gave a protein stability index (ubr1∆) of 2.06 ± 0.073.
TELVDGRENFVYANNPE [SIR3] showed a protein stability index (doa10∆) of 3.15 ± 0.1, a protein stability index (pdr5∆) of 3.33 ± 0.11 and a protein stability index (san1∆) of 3.05 ± 0.13. For the same sequence, the protein stability index (ubr1∆) was 2.95 ± 0.083.
For SFRIKQKMAKAKKQNRP [RPL39], the protein stability index (doa10∆) was 2.47 ± 0.17, the protein stability index (pdr5∆) was 2.78 ± 0.097 and the protein stability index (san1∆) was 2.93 ± 0.091. For the same sequence, the protein stability index (ubr1∆) was 2.93 ± 0.092.
QEPSASQVKDSVTETES [SRP68] gave a protein stability index (doa10∆) of 3.27 ± 0.13, a protein stability index (pdr5∆) of 2.93 ± 0.18 and a protein stability index (san1∆) of 3.14 ± 0.18. The protein stability index (ubr1∆) was 2.81 ± 0.19.
In the case of TIKILPENTAMFNPLHE [YMR129W/POM152], the protein stability index (doa10∆) is reported as 2.42 ± 0.064, the protein stability index (pdr5∆) is reported as 2.36 ± 0.053 and the protein stability index (san1∆) is reported as 2.36 ± 0.058. The protein stability index (ubr1∆) was 2.5 ± 0.05.
Work on EEAPAPTPAASAPAPAA [FAS2] yielded a protein stability index (doa10∆) of 2.8 ± 0.095, a protein stability index (pdr5∆) of 2.95 ± 0.076 and a protein stability index (san1∆) of 2.85 ± 0.091. It also gave a protein stability index (ubr1∆) of 3.02 ± 0.1.
In the case of QSNEDTFLPSYMKFSNK [RRI2], the protein stability index (doa10∆) is reported as 2.84 ± 0.063, the protein stability index (pdr5∆) is reported as 3.05 ± 0.063 and the protein stability index (san1∆) is reported as 3.17 ± 0.052. The protein stability index (ubr1∆) was 3.18 ± 0.048.
QDRDRFFLRDTLLWNKN [SNF5] showed a protein stability index (doa10∆) of 2.99 ± 0.056, a protein stability index (pdr5∆) of 3.08 ± 0.052 and a protein stability index (san1∆) of 2.83 ± 0.046. The protein stability index (ubr1∆) was 3 ± 0.039.
For PEEEAAIRRENEWAEDR [SKP1], the protein stability index (doa10∆) was 3.09 ± 0.1, the protein stability index (pdr5∆) was 3.15 ± 0.082 and the protein stability index (san1∆) was 3.34 ± 0.05. It also gave a protein stability index (ubr1∆) of 3.28 ± 0.1.
GTGLFGQQTAQPQQSTI [YGR119C/NUP57] showed a protein stability index (doa10∆) of 2.76 ± 0.063, a protein stability index (pdr5∆) of 3.13 ± 0.046 and a protein stability index (san1∆) of 2.85 ± 0.051. The protein stability index (ubr1∆) was 3.19 ± 0.058.
Sequence EAKDAIIELENINAKME [YIL149C/MLP2] has a protein stability index (doa10∆) of 3.06 ± 0.091, a protein stability index (pdr5∆) of 3.12 ± 0.099 and a protein stability index (san1∆) of 3.02 ± 0.08. For the same sequence, the protein stability index (ubr1∆) was 2.84 ± 0.088.
Sequence AVRLILPGELAKHAVSE [HTB1] has a protein stability index (doa10∆) of 3.23 ± 0.095, a protein stability index (pdr5∆) of 2.98 ± 0.064 and a protein stability index (san1∆) of 1.52 ± 0.17. It also gave a protein stability index (ubr1∆) of 3.28 ± 0.064.
Work on QIQQQQQKQQQQQQQHQ [SNF5] yielded a protein stability index (doa10∆) of 2.53 ± 0.12, a protein stability index (pdr5∆) of 2.97 ± 0.14 and a protein stability index (san1∆) of 2.93 ± 0.12. The protein stability index (ubr1∆) was 2.61 ± 0.22.
With LPNLGTPDDDEIDVENH [RPN8] the protein stability index (doa10∆) was 1.53 ± 0.076, the protein stability index (pdr5∆) was 1.82 ± 0.083 and the protein stability index (san1∆) was 1.69 ± 0.11. The protein stability index (ubr1∆) was 1.42 ± 0.056.
With IAASAFLSLLNLATKGM [REC8] the protein stability index (doa10∆) was 1.54 ± 0.054, the protein stability index (pdr5∆) was 1.52 ± 0.054 and the protein stability index (san1∆) was 1.71 ± 0.1. The protein stability index (ubr1∆) was 1.62 ± 0.046.
With CVVSTDSTNLSDDAAQF [ECM29] the protein stability index (doa10∆) was 2.19 ± 0.086, the protein stability index (pdr5∆) was 2.6 ± 0.075 and the protein stability index (san1∆) was 1.69 ± 0.08. The protein stability index (ubr1∆) was 3.04 ± 0.078.
HAYRDVLAQYHEAKERI [SNF6] gave a protein stability index (doa10∆) of 2.98 ± 0.066, a protein stability index (pdr5∆) of 3.43 ± 0.071 and a protein stability index (san1∆) of 3.09 ± 0.059. The protein stability index (ubr1∆) was 3.31 ± 0.051.
Work on CYVGLLTAIPILLEPIY [SNU114] yielded a protein stability index (doa10∆) of 1.31 ± 0.045, a protein stability index (pdr5∆) of 1.23 ± 0.035 and a protein stability index (san1∆) of 1.28 ± 0.064. The protein stability index (ubr1∆) was 1.34 ± 0.038.
Sequence GAAPYAAKLKQTENDLK [RPT1] has a protein stability index (doa10∆) of 2.06 ± 0.14, a protein stability index (pdr5∆) of 2.35 ± 0.17 and a protein stability index (san1∆) of 2.31 ± 0.24. For the same sequence, the protein stability index (ubr1∆) was 2.93 ± 0.19.
In the case of ERSELLRLFNAPDSEYL [SNF2], the protein stability index (doa10∆) is reported as 3.02 ± 0.044, the protein stability index (pdr5∆) is reported as 2.8 ± 0.051 and the protein stability index (san1∆) is reported as 2.87 ± 0.045. It also gave a protein stability index (ubr1∆) of 2.77 ± 0.045.
GRLNTLVISLAATNETF [IRR1] showed a protein stability index (doa10∆) of 1.64 ± 0.088, a protein stability index (pdr5∆) of 1.38 ± 0.065 and a protein stability index (san1∆) of 1.1 ± 0.23. For the same sequence, the protein stability index (ubr1∆) was 1.17 ± 0.06.
EPDLESQISKAEMEADS [SMC4] gave a protein stability index (doa10∆) of 2.89 ± 0.078, a protein stability index (pdr5∆) of 3.39 ± 0.18 and a protein stability index (san1∆) of 3.43 ± 0.069. It also gave a protein stability index (ubr1∆) of 2.55 ± 0.17.
LTKAQKYLDQVLDHQRA [RPL17B] gave a protein stability index (doa10∆) of 3 ± 0.096, a protein stability index (pdr5∆) of 2.96 ± 0.092 and a protein stability index (san1∆) of 3.03 ± 0.079. The protein stability index (ubr1∆) was 2.98 ± 0.042.
Work on SFLESVIRDSVTYTEHA [HHF1] yielded a protein stability index (doa10∆) of 2.82 ± 0.077, a protein stability index (pdr5∆) of 2.29 ± 0.064 and a protein stability index (san1∆) of 2.17 ± 0.058. The protein stability index (ubr1∆) was 2.47 ± 0.049.
With GMMSTTGTARLNSMPNN [YJL039C/NUP192] the protein stability index (pdr5∆) was 2.99 ± 0.15, the protein stability index (san1∆) was 3.1 ± 0.089 and the protein stability index (ubr1∆) was 3.22 ± 0.11.
Work on DSYLDADKELSFEINVK [BRR2] yielded a protein stability index (doa10∆) of 2.83 ± 0.051, a protein stability index (pdr5∆) of 3.03 ± 0.041 and a protein stability index (san1∆) of 3.08 ± 0.032. It also gave a protein stability index (ubr1∆) of 2.88 ± 0.034.
Work on MEKDKLKNLLRSNFRVN [SNU114] yielded a protein stability index (doa10∆) of 1.99 ± 0.087, a protein stability index (pdr5∆) of 2.45 ± 0.08 and a protein stability index (san1∆) of 2.46 ± 0.13. For the same sequence, the protein stability index (ubr1∆) was 2.65 ± 0.087.
Work on GSKIRVMWGKVTRTHGN [RPL33A] yielded a protein stability index (doa10∆) of 3.09 ± 0.075, a protein stability index (pdr5∆) of 2.9 ± 0.076 and a protein stability index (san1∆) of 2.76 ± 0.062. For the same sequence, the protein stability index (ubr1∆) was 2.78 ± 0.054.
TCSCCKKTVAGGAYTVS [RPL43A] showed a protein stability index (doa10∆) of 1.65 ± 0.064, a protein stability index (pdr5∆) of 2.1 ± 0.11 and a protein stability index (san1∆) of 1.76 ± 0.086. The protein stability index (ubr1∆) was 2.15 ± 0.066.
In the case of ETLEHNPVALEQKLVDL [BRR2], the protein stability index (doa10∆) is reported as 2.15 ± 0.092, the protein stability index (pdr5∆) is reported as 2.79 ± 0.077 and the protein stability index (san1∆) is reported as 2.43 ± 0.074. For the same sequence, the protein stability index (ubr1∆) was 2.35 ± 0.11.
